Measured values as given in publication PMC6468627.

Assays:
[1] = molecular target: T1, EpCAM (native, on primary lung cancer cells) (Homo sapiens (patient NSCLC tumor cells)) (UniProt P16422); assay: competition (flow cytometry); details: DPBS, 25 °C, 30 min; cells (3×10^5) pre-incubated with 1 ng/uL salmon sperm DNA; DNA pools/library heated to 95 °C 5 min then on ice 10 min; pH not stated
T1 sequence: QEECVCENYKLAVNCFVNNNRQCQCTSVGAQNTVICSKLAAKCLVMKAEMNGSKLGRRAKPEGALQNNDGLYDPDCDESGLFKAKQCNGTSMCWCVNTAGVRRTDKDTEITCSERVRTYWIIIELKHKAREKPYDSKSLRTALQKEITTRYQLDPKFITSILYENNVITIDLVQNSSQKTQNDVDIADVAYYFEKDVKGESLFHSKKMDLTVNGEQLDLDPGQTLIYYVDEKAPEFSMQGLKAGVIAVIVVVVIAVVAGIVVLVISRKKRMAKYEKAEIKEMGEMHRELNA

[2] = molecular target: T1, EpCAM (native, on primary lung cancer cells) (Homo sapiens (patient NSCLC tumor cells)); assay: flow cytometry (cell binding); details: apparent Kd on whole primary lung cancer cells; 1-300 nM aptamer; DPBS, 25 °C, 30 min; cells (3×10^5) pre-incubated with 1 ng/uL salmon sperm DNA; DNA pools/library heated to 95 °C 5 min then on ice 10 min; pH not stated

Question: Which binding signal (% displaced by antibody) [1] does the source give for “CTCCTCTGACTGTAACCACGACACGCACAAATGTCAGTGTACCGCACTCGCACATTCTTAGCATAGGTAGTCCAGAAGCC [EPCAM-APT-01 (ECM_01)]” here?
Answer: 15

Question: What about the Kd [2] of the same sequence?
Answer: 25 nM

Question: How did the binding signal (% of cells releasing aptamer) [1] turn out when “CTCCTCTGACTGTAACCACGGTGCGCGTACCACCATGTGTACACACTGCATGTTTGGTTAGCATAGGTAGTCCAGAAGCC [EPCAM-APT-02 (ECM_02)]” was run?
Answer: 18

Question: And the Kd [2]?
Answer: 15 nM
